Columns and labels:
[1] = Phase 1 safety and tolerability of single IV infusion of kappamab (adverse events, laboratory, ECG)
Protocol: Patients on maintenance therapy (thalidomide or lenalidomide) were also eligible for inclusion. Patients were excluded from the study if their serum κFLC was greater than 250 mg/L.
The pharmacodynamics of serum κFLC was also assessed. Drug-target modulation of cell signalling pathways was determined by measuring pro-inflammatory and anti-inflammatory cytokines, chemokines, and growth factors in patient serum at specific time intervals.
After providing HREC-approved consent, patients were screened and assessed for study eligibility.
Within each dose cohort only 1 patient per week was to be treated. […] Premedication was not mandated, however, paracetamol (acetaminophen), corticosteroids, and antihistamines were allowed for the treatment of infusion reactions.
Evaluation of safety and tolerability during treatment included vital signs, physical examination, electrocardiogram (ECG), haematology assessments, clinical chemistry, C-reactive protein, β2-microglobulin, immunoglobulin quantification, urinalysis, creatinine clearance, collection of adverse events (AEs), and drug-induced toxicity. All AEs were graded using the Cancer Therapy Evaluation Program Common Terminology Criteria for Adverse Events, version 3.0.

[2] = test system: 48 human cytokines, chemokines, and growth factors; assay: Biomarker analysis, Bio-Plex 27-plex and 21-plex, mixed-effects model; format: in vivo; settings: 48 cytokines
Protocol: Patient serum samples for biomarker analysis were collected approximately 30 minutes before infusion of kappamab and then at 6, 48, 192, and 1,080 hours after infusion for all patients. Samples were analysed in triplicate and serum levels of 48 human cytokines, chemokines, and growth factors were measured using the Bio-Plex Pro™ Human Cytokine 27-plex and 21-plex assays according to the manufacturer's recommendations (Bio-Rad, Carlsbad, Calif., USA; Cat No M10-0KCAF0Y, mg0-005KMII). Results were verified by repeating the 21-plex assay in triplicate and the samples were randomized across the assay plate. Pre-infusion samples were used as the baseline (t=0) for the analysis.
Multivariate analysis of the biomarker data was performed using R version 3.1.0 (2014-04-10) software (http://www.R-project.org/). Linear mixed effects modelling was completed using 1me4 (Bates et al. 2015). […]
To find significance between kappamab dose, time, and cytokine expression levels, we fitted a linear mixed-effects model that modelled cytokine fluorescence expression levels with fixed-effects terms for baseline cytokine fluorescence expression, kappamab dose (with 4 levels: 0.3, 1.0, 3.0, and 10 mg/kg), time (treated as factor with 5 levels), and cytokine with 48 levels, plus their interactions, with a random effect associated with patient (12 levels) and plex (2 levels). […]

[3] = All treatment-emergent AEs, Grade 1-3, 0.3 mg/kg (N = 3)
[4] = All treatment-emergent AEs, Grade 1-3, 1.0 mg/kg (N = 3)
[5] = All treatment-emergent AEs, Grade 1-3, 3.0 mg/kg (N = 3)
[6] = All treatment-emergent AEs, Grade 1-3, 10 mg/kg (N = 3)
[7] = All treatment-emergent AEs, Grade 1-3, Overall (N = 12)
[8] = All treatment-emergent AEs, Grade 4/5, 0.3 mg/kg (N = 3)
[9] = All treatment-emergent AEs, Grade 4/5, 1.0 mg/kg (N = 3)
[10] = All treatment-emergent AEs, Grade 4/5, 3.0 mg/kg (N = 3)
[11] = All treatment-emergent AEs, Grade 4/5, 10 mg/kg (N = 3)
[12] = All treatment-emergent AEs, Grade 4/5, Overall (N = 12)
[13] = All treatment-emergent AEs, Total, 0.3 mg/kg (N = 3)
[14] = All treatment-emergent AEs, Total, 1.0 mg/kg (N = 3)
[15] = All treatment-emergent AEs, Total, 3.0 mg/kg (N = 3)
[16] = All treatment-emergent AEs, Total, 10 mg/kg (N = 3)
[17] = All treatment-emergent AEs, Total, Overall (N = 12)
[18] = Possibly, probably, or definitely related AEs, Grade 1-3, 0.3 mg/kg (N = 3)
[19] = Possibly, probably, or definitely related AEs, Grade 1-3, 1.0 mg/kg (N = 3)
[20] = Possibly, probably, or definitely related AEs, Grade 1-3, 3.0 mg/kg (N = 3)
[21] = Possibly, probably, or definitely related AEs, Grade 1-3, 10 mg/kg (N = 3)
[22] = Possibly, probably, or definitely related AEs, Grade 1-3, Overall (N = 12)
[23] = Possibly, probably, or definitely related AEs, Grade 4/5, 0.3 mg/kg (N = 3)
[24] = Possibly, probably, or definitely related AEs, Grade 4/5, 1.0 mg/kg (N = 3)
[25] = Possibly, probably, or definitely related AEs, Grade 4/5, 3.0 mg/kg (N = 3)
[26] = Possibly, probably, or definitely related AEs, Grade 4/5, 10 mg/kg (N = 3)
[27] = Possibly, probably, or definitely related AEs, Grade 4/5, Overall (N = 12)
[28] = Possibly, probably, or definitely related AEs, Total, 0.3 mg/kg (N = 3)
[29] = Possibly, probably, or definitely related AEs, Total, 1.0 mg/kg (N = 3)
[30] = Possibly, probably, or definitely related AEs, Total, 3.0 mg/kg (N = 3)
[31] = Possibly, probably, or definitely related AEs, Total, 10 mg/kg (N = 3)
[32] = Possibly, probably, or definitely related AEs, Total, Overall (N = 12)
[33] = Related AEs by System Organ Class, Overall total, 0.3 mg/kg (N = 3)
[34] = Related AEs by System Organ Class, Overall total, 1.0 mg/kg (N = 3)
[35] = Related AEs by System Organ Class, Overall total, 3.0 mg/kg (N = 3)
[36] = Related AEs by System Organ Class, Overall total, 10 mg/kg (N = 3)
[37] = Related AEs by System Organ Class, Overall total, Overall (N = 12)
[38] = Related AEs: Dyspnea, 10 mg/kg (N = 3)
[39] = Related AEs: Dyspnea, Overall (N = 12)
[40] = Related AEs: Eructation, 10 mg/kg (N = 3)
[41] = Related AEs: Eructation, Overall (N = 12)
[42] = Related AEs: Flushing, 10 mg/kg (N = 3)
[43] = Related AEs: Flushing, Overall (N = 12)
[44] = Related AEs: Gastrointestinal disorders, Total, 10 mg/kg (N = 3)
[45] = Related AEs: Gastrointestinal disorders, Total, Overall (N = 12)
[46] = Related AEs: Musculoskeletal and connective tissue disorders, Total, 10 mg/kg (N = 3)
[47] = Related AEs: Musculoskeletal and connective tissue disorders, Total, Overall (N = 12)
[48] = Related AEs: Nausea, 10 mg/kg (N = 3)
[49] = Related AEs: Nausea, Overall (N = 12)
[50] = Related AEs: Pain in extremity, 10 mg/kg (N = 3)
[51] = Related AEs: Pain in extremity, Overall (N = 12)
[52] = Related AEs: Respiratory, thoracic & mediastinal disorders, Total, 10 mg/kg (N = 3)
[53] = Related AEs: Respiratory, thoracic & mediastinal disorders, Total, Overall (N = 12)
[54] = Related AEs: Vascular disorders, Total, 10 mg/kg (N = 3)
[55] = Related AEs: Vascular disorders, Total, Overall (N = 12)

kappamab: humanized form of K121 anti-KMA antibody; VH SEQ ID NO: 1, VL SEQ ID NO: 2
DLT or discontinuation due to an AE ([1]; 0.3-10 mg/kg): no patients who experienced a DLT or discontinued the study due to an AE
Patients with nausea (most frequently reported AE) ([1]; 2/12 patients): 17%
Patients who experienced study drug-related AEs ([1]; 2/12 patients, at the highest dose level (10 mg/kg)): 17%
AEs that were grade 1 or 2 ([1]; 17/18 events): 94%
Number of patients with AEs (%) [1, 3]: 2 (66%)
number of AEs [1, 3]: 4
Number of patients with AEs (%) [1, 4]: 3 (100%)
number of AEs [1, 4]: 3
Number of patients with AEs (%) [1, 5]: 1 (33%)
number of AEs [1, 5]: 2
Number of patients with AEs (%) [1, 6]: 2 (67%)
number of AEs [1, 6]: 9
Number of patients with AEs (%) [1, 7]: 8 (67%)
number of AEs [1, 7]: 18
Number of patients with AEs (%) [1, 8]: 0 (0%)
number of AEs [1, 8]: 0
Number of patients with AEs (%) [1, 9]: 0 (0%)
number of AEs [1, 9]: 0
Number of patients with AEs (%) [1, 10]: 0 (0%)
number of AEs [1, 10]: 0
Number of patients with AEs (%) [1, 11]: 0 (0%)
number of AEs [1, 11]: 0
Number of patients with AEs (%) [1, 12]: 0 (0%)
number of AEs [1, 12]: 0
Number of patients with AEs (%) [1, 13]: 2 (67%)
number of AEs [1, 13]: 4
Number of patients with AEs (%) [1, 14]: 3 (100%)
number of AEs [1, 14]: 3
Number of patients with AEs (%) [1, 15]: 1 (33%)
number of AEs [1, 15]: 2
Number of patients with AEs (%) [1, 16]: 2 (67%)
number of AEs [1, 16]: 9
Number of patients with AEs (%) [1, 17]: 8 (67%)
number of AEs [1, 17]: 18
Patients who experienced treatment-emergent AEs ([1]; Eight of the 12 patients, all doses): 67%
Number of patients with AEs (%) [1, 18]: 0 (0%)
number of AEs [1, 18]: 0
Number of patients with AEs (%) [1, 19]: 0 (0%)
number of AEs [1, 19]: 0
Number of patients with AEs (%) [1, 20]: 0 (0%)
number of AEs [1, 20]: 0
Number of patients with AEs (%) [1, 21]: 2 (67%)
number of AEs [1, 21]: 6
Number of patients with AEs (%) [1, 22]: 2 (17%)
number of AEs [1, 22]: 6
Number of patients with AEs (%) [1, 23]: 0 (0%)
number of AEs [1, 23]: 0
Number of patients with AEs (%) [1, 24]: 0 (0%)
number of AEs [1, 24]: 0
Number of patients with AEs (%) [1, 25]: 0 (0%)
number of AEs [1, 25]: 0
Number of patients with AEs (%) [1, 26]: 0 (0%)
number of AEs [1, 26]: 0
Number of patients with AEs (%) [1, 27]: 0 (0%)
number of AEs [1, 27]: 0
Number of patients with AEs (%) [1, 28]: 0 (0%)
number of AEs [1, 28]: 0
Number of patients with AEs (%) [1, 29]: 0 (0%)
number of AEs [1, 29]: 0
Number of patients with AEs (%) [1, 30]: 0 (0%)
number of AEs [1, 30]: 0
Number of patients with AEs (%) [1, 31]: 2 (67%)
number of AEs [1, 31]: 6
Number of patients with AEs (%) [1, 32]: 2 (17%)
number of AEs [1, 32]: 6
Number of patients with AEs (%) [1, 33]: 0[0]
number of AEs [1, 33]: 0[0]
Number of patients with AEs (%) [1, 34]: 0[0]
number of AEs [1, 34]: 0[0]
Number of patients with AEs (%) [1, 35]: 0[0]
number of AEs [1, 35]: 0[0]
Number of patients with AEs (%) [1, 36]: 2 (67%)
number of AEs [1, 36]: 6
Number of patients with AEs (%) [1, 37]: 2 (17%)
number of AEs [1, 37]: 6
Number of patients with AEs (%) [1, 38]: 1(33%)
number of AEs [1, 38]: 1
Number of patients with AEs (%) [1, 39]: 1 (8.3%)
number of AEs [1, 39]: 1
Number of patients with AEs (%) [1, 40]: 1 (33%)
number of AEs [1, 40]: 1
Number of patients with AEs (%) [1, 41]: 1 (8.3%)
number of AEs [1, 41]: 1
Number of patients with AEs (%) [1, 42]: 1 (33%)
number of AEs [1, 42]: 1
Number of patients with AEs (%) [1, 43]: 1 (8.3%)
number of AEs [1, 43]: 1
Number of patients with AEs (%) [1, 44]: 2 (67%)
number of AEs [1, 44]: 3
Number of patients with AEs (%) [1, 45]: 2 (17%)
number of AEs [1, 45]: 3
Number of patients with AEs (%) [1, 46]: 1 (33%)
number of AEs [1, 46]: 1
Number of patients with AEs (%) [1, 47]: 1 (8.3%)
number of AEs [1, 47]: 1
Number of patients with AEs (%) [1, 48]: 2 (67%)
number of AEs [1, 48]: 2
Number of patients with AEs (%) [1, 49]: 2 (8.3%)
number of AEs [1, 49]: 2
Number of patients with AEs (%) [1, 50]: 1 (33%)
number of AEs [1, 50]: 1
Number of patients with AEs (%) [1, 51]: 1 (8.3%)
number of AEs [1, 51]: 1
Number of patients with AEs (%) [1, 52]: 1 (33%)
number of AEs [1, 52]: 1
Number of patients with AEs (%) [1, 53]: 1 (8.3%)
number of AEs [1, 53]: 1
Number of patients with AEs (%) [1, 54]: 1 (33%)
number of AEs [1, 54]: 1
Number of patients with AEs (%) [1, 55]: 1 (8.3%)
number of AEs [1, 55]: 1
Time to resolution of infusion reaction symptoms ([1]; after infusion was stopped, without treatment): ≤ 30 min
Immune complex formation or serum sickness ([1]; any patient): no evidence of immune complex formation or serum sickness
Deaths or other serious AEs ([1]; during the study): no deaths or other serious AEs
Serum immunoglobulin levels, clinical chemistry, haematology, urinalysis ([1]; during the study): no dose-related trends
ECG QTc intervals ([1]; in vivo): no prolongation of QTc intervals
ECOG performance status scores ([1]; in vivo): no effect
Lactate dehydrogenase levels or vital signs ([1]; in vivo): No changes from baseline
Serum C-reactive protein levels ([1]; in vivo): no apparent dose-related trend
Infusion reaction ([1]; one patient, 10 mg/kg, flushing, dyspnea, nausea after start of infusion): grade 1 infusion reaction
Maximum tolerated dose ([1]; patients treated up to 10 mg/kg): No maximum tolerated dose of kappamab was defined
Kidney function ([1]; serum blood urea nitrogen, serum creatinine, creatinine clearance): no drug-related effects on kidney function
Increases in serum cytokine concentrations in response to treatment [2]: No increases

From patent US20220031840A1, “Method of Treatment” (HaemaLogix Pty Ltd, priority 2018, published 2022)
